Measurements published in patent US8226935 (dated 2012).

Biological target: T1, heregulin (125I-HRG) (human, UniProt Q02297)
T1 chain: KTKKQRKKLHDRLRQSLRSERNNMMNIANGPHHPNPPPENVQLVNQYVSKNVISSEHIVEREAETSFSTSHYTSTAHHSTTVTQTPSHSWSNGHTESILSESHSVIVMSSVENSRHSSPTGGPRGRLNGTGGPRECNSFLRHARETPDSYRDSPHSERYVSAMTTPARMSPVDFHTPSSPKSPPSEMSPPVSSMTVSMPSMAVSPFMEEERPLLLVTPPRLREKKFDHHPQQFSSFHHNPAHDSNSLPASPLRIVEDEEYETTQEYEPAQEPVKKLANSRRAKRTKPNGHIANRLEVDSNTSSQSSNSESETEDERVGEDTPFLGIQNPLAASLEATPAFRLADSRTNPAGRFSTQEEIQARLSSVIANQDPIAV
Test: other 125I-HRG radioligand binding, Scatchard

B1: ErbB4-IgG (antibody)
chain: QSVCAGTENKLSSLSDLEQQYRALRKYYENCEVVMGNLEITSIEHNRDLSFLRSVREVTGYVLVALNQFRYLPLENLRIIRGTKLYEDRYALAIFLNYRKDGNFGLQELGLKNLTEILNGGVYVDQNKFLCYADTIHWQDIVRNPWPSNLTLVSTNGSSGCGRCHKSCTGRCWGPTENHCQTLTRTVCAEQCDGRCYGPYVSDCCHRECAGGCSGPKDTDCFACMNFNDSGACVTQCPQTFVYNPTTFQLEHNFNAKYTYGAFCVKKCPHNFVVDSSSCVRACPSSKMEVEENGIKMCKPCTDICPKACDGIGTGSLMSAQTVDSSNIDKFINCTKINGNLIFLVTGIHGDPYNAIEAIDPEKLNVFRTVREITGFLNIQSWPPNMTDFSVFSNLVTIGGRVLYSGLSLLILKQQGITSLQFQSLKEISAGNIYITDNSNLCYYHTINWTTLFSTINQRIVIRDNRKAENCTAEGMVCNHLCSSDGCWGPGPDQCLSCRRFSRGRICIESCNLYDGEFREFENGSICVECDPQCEKMEDGLLTCHGPGPDNCTKCSHFKDGPNCVEKCPDGLQGANSFIFKYADPDRECHPCHPNCTQGCNGPTSHDCIYYPWTGHSTLPQHARTP
modifications: homodimeric ECD-human IgG Fc immunoadhesin
With B1 as the binder, how does the Kd read?
The Kd was 4.98 nM.

B2: ErbB3/4-IgG (antibody)
chain 1: not shown
chain 2: QSVCAGTENKLSSLSDLEQQYRALRKYYENCEVVMGNLEITSIEHNRDLSFLRSVREVTGYVLVALNQFRYLPLENLRIIRGTKLYEDRYALAIFLNYRKDGNFGLQELGLKNLTEILNGGVYVDQNKFLCYADTIHWQDIVRNPWPSNLTLVSTNGSSGCGRCHKSCTGRCWGPTENHCQTLTRTVCAEQCDGRCYGPYVSDCCHRECAGGCSGPKDTDCFACMNFNDSGACVTQCPQTFVYNPTTFQLEHNFNAKYTYGAFCVKKCPHNFVVDSSSCVRACPSSKMEVEENGIKMCKPCTDICPKACDGIGTGSLMSAQTVDSSNIDKFINCTKINGNLIFLVTGIHGDPYNAIEAIDPEKLNVFRTVREITGFLNIQSWPPNMTDFSVFSNLVTIGGRVLYSGLSLLILKQQGITSLQFQSLKEISAGNIYITDNSNLCYYHTINWTTLFSTINQRIVIRDNRKAENCTAEGMVCNHLCSSDGCWGPGPDQCLSCRRFSRGRICIESCNLYDGEFREFENGSICVECDPQCEKMEDGLLTCHGPGPDNCTKCSHFKDGPNCVEKCPDGLQGANSFIFKYADPDRECHPCHPNCTQGCNGPTSHDCIYYPWTGHSTLPQHARTP
modifications: heterodimeric ECD-human IgG Fc immunoadhesin (mixture with homodimers)
With B2 as the binder, how does the Kd read?
Its Kd is 5.98 nM.
